From patent publication US20110142884A1, “Materials and Methods for Making Improved Micelle Compositions” (The Board of Trustees of the University of Illinois, priority 2002, published 2011)

Assay: Circular dichroism (CD) spectral analysis of peptide conformation, % helicity
Type: physicochemical
Procedure: According to this example, circular dichroism (CD) experiments were performed to determine the conformation changes of VIP in phospholipid micelles, pH and temperature changes, and in aqueous solutions. CD spectra were recorded on a JASCO J-700 spectropolarimeter using a fused quartz cell of 1 cm pathlength. Spectra in 0.15 N saline (pH 6.8) and 5 mM Hepes buffer (pH 7.4) were measured at a peptide concentration of 4 μM and at a lipid concentration of 1 mM. The effects of CaM, pH (6.8 or 7.4) and temperature (25° C. or 37° C.) on VIP conformation were also studied. The conformation of VIP fragments was likewise studied. All measurements were carried out at room temperature (˜25° C.) unless otherwise noted. A bandwidth of 1.0 nm and a step resolution of 0.5 nm were used to collect an average of 9 accumulations/sample at the […] (200-260 nm wavelength). The peptide spectra shown have the background buffer scans, and empty vesicle scans subtracted and were smoothed using the noise reduction function. The temperature during spectral analysis was maintained by using a circulating water bath attached to a jacket surrounding the fused quartz CD cell. The percent helical characterization of VIP was determined by a method of Haghjoo et al., Peptide Research 9 (6):327-331 (1996): % helicity=[−(θ208+4000)/29 000]*100 and are reported in table 1.
According to the example, CD was used to determine the conformation of VIP in saline, Hepes buffer and phospholipid micelles at room temperature and at 37° C. The CD spectra analysis was performed after 13 μg of human VIP incubated with 1 ml PEG-DSPE (1 μmol) micelles for 30 min at room temperature as determined by preliminary studies. A bandwidth of 1.0 nm and a step resolution of 0.5 nm were used to collect an average of 9 accumulations/sample at near UV range (200-260 nm). The temperature was maintained during spectral analysis by a circulating water bath attached to a jacket surrounding the fused quartz CD cell. The evaluation of VIP molecule conformation in SSM by using circular dichroism was successful because the distortion caused by spherical particles was eliminate due to the small size and univesicular structure of the SSM. […] The phospholipid micelles were ideal in our study of VIP conformation since it provided a hydrophobic core similar to the phospholipid bilayer of the SSL. Moreover, both the negative charge, and the hydrophilic layer provided by the PEG mimic the conditions of our SSL and make it possible to infer the VIP conformational results.
According to this example, the method of example 4 was repeated to determine the conformation of VIP in saline and phospholipid micelles plus calmodulin (CaM). CD spectra measurements were performed after 13 μg/ml of VIP was incubated with 1.0 μmol/ml of phospholipid micelles for 30 min followed by 10^−10 M CaM incubated with VIP in phospholipid micelles for 2 h at 4° C. (conjugation paper). A bandwidth of 1.0 nm and a step resolution of 0.5 nm were used to collect the average of 9 accumulations/sample at near UV range (200-260 nm).
According to this example the method of example 4 was repeated to determine the conformation of VIP fragments in saline and phospholipid micelles. CD spectra measurements were performed after incubation of VIP fragments with phospholipid micelles, at a molar concentration equivalent to VIP (i.e. 9 μg/ml for VIP10-28 fragment and 6 μg/ml for VIP1-12 fragment), for 30 min. A bandwidth of 1.0 nm and a step resolution of 0.5 nm were used to collect the average of 9 accumulations/sample at near UV range (200-260 nm). Specifically, CD spectra of human VIP fragment (1-12) and (10-28) in the presence of phospholipid micelles are shown in FIG. 5. […] These effects correlate well with the % helicity of VIP fragments determined in saline and in the presence of phospholipids (Table 1). […]

vasoactive intestinal peptide [VIP]
Conformation from CD spectrum in the presence of phospholipid micelles (SSM) (phospholipid micelles (SSM), room temperature): predominantly α-helix conformation | % Helicity (in the presence of) Phospholipids (37° C.): 67% | % Helicity (in the presence of) Phospholipids (room temperature): 27% | % Helicity (in the presence of) Saline (saline, 37° C.): 2% | % Helicity (in the presence of) Saline (saline, room temperature): 5% | Conformation from CD spectrum in saline (saline, room temperature): primarily a random coil structure
